These results are taken from patent US20130261013A1 (MODPRO, published 2013).

The target of test [1] is T1, human Carbonic Anhydrase II (human, UniProt P00918 2-260). Put plainly: fluorescence titration, 50 nM fluorescein labelled binder, HCAII 20 pM to 1 µM. As for the experimental part: The fluorescence titrations were carried out using polypeptides conjugated to a dansyl group rather than a 7-methoxycoumarin to avoid overlap with fluorescein, but a fluorophore is present in each sequence of the scaffold library to simplify identification and quantification throughout synthesis and purification. […] Fluorescence intensities of protein-binder mixtures were compared to intensities of binders without protein. The analysis was performed in 50 mM Hepes buffer at pH 7.4 containing 150 mM NaCl. HCAII was added in 25 steps over a concentration range from 20 pM to 1 μM to the binder at 50 nM concentration and the results analyzed by curve fitting.

Test [2] concerns the target T2, human Carbonic Anhydrase I (human, UniProt P00915 2-261).
T2 construct: also called HCAI; HCA I
The test is described as follows: SPR, HCAI immobilized on CM5, 1:1 model. The protocol: (§1) HCAI and HCAII were immobilized in different flowcells on a CM-5 (Biacore) chip using standard EDC/NHS coupling in Acetate buffer at pH 5.5.
(§2) SPR measurements were performed on a Biacore® 2000 instrument, with the proteins immobilized on a Biacore® CM-5 sensor chips (GE Healthcare). All interaction studies were performed in Biacore® HSB-EP buffer with the addition of 1% (v/v) DMSO. HCAII (Sigma, lyophilized powder) was dissolved in Acetate buffer pH 5.5 to a 2 mg/mL solution. HCAII were conjugated to the surface by EDC/NHS coupling reactions in Acetate buffer pH 5.5. Solutions of the polypeptide binders were prepared in HBS-EP buffer from stock solutions of 20 μM in DMSO and allowed to flow over the surface at 20 μL/min, with blank injections after every series. All samples were adjusted to contain 1% (v/v) DMSO. Injections were made for 30 s and dissociation was allowed to proceed for 3000 s. Evaluation was performed using a 1:1 binding model.
On the technique in general: Surface plasmon resonance follows binding to a sensor surface in real time, without labels.

In test [3] the target is T1, human Carbonic Anhydrase II. The test is described as follows: SPR, HCAII immobilized on CM5, 1:1 model. The protocol: as §1, §2
For test [4] the target is unchanged. The test is described as follows: SPR (Biacore 2000), HCAII immobilized on CM5, 1:1 model. As for the experimental part:
The sixteen polypeptide conjugates were also characterized by SPR biosensor analysis (Biacore®, GE Healthcare), using a Biacore® 2000 instrument, Biacore® CM-5 chip and HBS-EP buffer pH 7.4 (Biacore®, GE Healthcare) with addition of 1% DMSO for the interaction studies. Peptide solutions were prepared by dilution in buffer from 20 μM stock solutions in DMSO. HCAII was immobilized on the chip using standard EDC/NHS coupling in Acetate buffer pH 5.5. The binders were allowed to flow over the chip at 7 concentrations in the range from 1 nM to 500 nM and the interactions were evaluated using a 1:1 binding model (BiaEvaluation).
as §2, with “Evaluation was performed using a 1:1 binding model.” left out

Test [5] shares this target. Put plainly: SPR, ratio of the dissociation constants for HCAI and HCAII.
Source text: as §1

The target of test [6] is T2, human Carbonic Anhydrase I. The test is described as follows: SPR, HCAI immobilized on CM5, 1:1 model; the heads Koff and Kon seem to be swapped. As for the experimental part:
as §1, §2

In test [7] the target is T3, human D-dimer protein (human, UniProt P02671 124-216; P02675 164-491; P02679 89-437).
T3 construct: Bought from Abcam Inc. UK; the chain make-up here is from general knowledge
T3 sequence (looked up) 1: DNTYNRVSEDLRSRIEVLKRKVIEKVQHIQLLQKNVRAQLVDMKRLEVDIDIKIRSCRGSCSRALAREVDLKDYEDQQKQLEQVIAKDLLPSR
T3 sequence (looked up) 2: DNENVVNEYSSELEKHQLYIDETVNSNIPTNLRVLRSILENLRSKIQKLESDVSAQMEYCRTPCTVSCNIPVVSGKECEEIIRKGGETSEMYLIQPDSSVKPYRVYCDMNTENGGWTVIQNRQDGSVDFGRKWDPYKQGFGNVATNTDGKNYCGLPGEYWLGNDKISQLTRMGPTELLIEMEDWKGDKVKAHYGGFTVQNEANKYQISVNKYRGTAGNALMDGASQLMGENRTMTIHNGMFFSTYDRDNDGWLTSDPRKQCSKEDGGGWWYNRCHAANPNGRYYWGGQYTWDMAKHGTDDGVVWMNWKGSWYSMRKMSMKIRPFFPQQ
T3 sequence (looked up) 3: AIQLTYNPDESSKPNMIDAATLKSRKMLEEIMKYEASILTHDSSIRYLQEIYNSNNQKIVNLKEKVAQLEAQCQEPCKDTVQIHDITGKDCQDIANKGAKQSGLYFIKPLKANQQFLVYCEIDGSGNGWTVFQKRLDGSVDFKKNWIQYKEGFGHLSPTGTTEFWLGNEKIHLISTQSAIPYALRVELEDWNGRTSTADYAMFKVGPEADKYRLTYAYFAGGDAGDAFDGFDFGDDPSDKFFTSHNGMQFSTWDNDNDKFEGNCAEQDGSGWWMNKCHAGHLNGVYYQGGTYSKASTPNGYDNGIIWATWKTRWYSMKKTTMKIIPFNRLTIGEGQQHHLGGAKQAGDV
Put plainly: SPR (Biacore 2000) screen, D-dimer immobilized on a CM5 chip, binder at 1, 10 and 100 nM, 3 min injection, 10 min clearance. The protocol: (§3) The protein was then further diluted with 10 mM NaOAc at pH 4.6 to give a concentration of about 32 μg/mL. The D-dimer protein was covalently immobilized on the sensor chip surface by amine coupling with HBS-EP (10 mM HEPES, pH 7.4, 150 mM NaCl, 3 mM EDTA and 0.005% P20) (GE Healthcare Bio-Sciences, Uppsala, Sweden) as a running buffer. The CM5 sensor chip surface was activated for 7 min by injecting a solution of EDC/NHS (200 mM 1-ethyl-3-(3-dimethylaminopropyl)-carbodiimide hydrochloride/50 mM N-hydroxysuccinimide) (GE Healthcare Bio-Sciences, Uppsala, Sweden). The D-dimer protein was injected for 1.5 min at flow rate of 5 uL/min over the activated surface and followed by 7-min pulse of 1M ethanolamine at pH 8.5 to deactivate remaining active ester.
The interactions between the D-dimer protein and binders as well as surface competition experiments were studied using a Biacore 2000 instrument (GE Healthcare Bio-Sciences, Uppsala, Sweden), equilibrated at 25° C. The CM5 sensor chip (Research grade, Biacore) and reagents were from GE Healthcare Bio-Sciences, Uppsala, Sweden. For direct interaction studies between immobilized D-dimer protein and polypeptide conjugates, HBS-EP was used as running buffer. […] For minimum sample dispersion, the samples were injected at a flow rate of 50 uL/min. […]

The target in test [8] is T3, human D-dimer protein. Put plainly: SPR screen (Biacore 2000), D-dimer immobilized on CM5, 1:1 Langmuir model. As for the experimental part:
as §3
(§4) The interactions between the D-dimer protein and binders as well as surface competition experiments were studied using a Biacore 2000 instrument (GE Healthcare Bio-Sciences, Uppsala, Sweden), equilibrated at 25° C. The CM5 sensor chip (Research grade, Biacore) and reagents were from GE Healthcare Bio-Sciences, Uppsala, Sweden. For direct interaction studies between immobilized D-dimer protein and polypeptide conjugates, HBS-EP was used as running buffer. […] For minimum sample dispersion, the samples were injected at a flow rate of 50 uL/min. After 10 min of dissociation the surface was regenerated by 30 s pulse injection of 10 mM glycine at pH 3.0. All injections were serial and first passed over the deactivated dextran surface and then over the immobilized surfaces. Blank injections were included for each measurement series and subtracted from the data. Experiments were performed at least twice, unless stated otherwise. […] The dissociation constants, Kd, were obtained using the Biaevaluation program version 3.2 (Biacore) and assuming a simple 1:1 Langmuir binding mechanism.

Test [9] addresses T3, human D-dimer protein. The test is described as follows: SPR (Biacore 2000), D-dimer immobilized on CM5, binders at 5-160 nM, 1:1 Langmuir model.
In test [10] the target is T3, human D-dimer protein. Put plainly: SPR surface competition, D-dimer immobilized; competitor 4-D10L17-GPRP at 100 nM; GPRP in running buffer, competing with 100 nM 4-D10L17-GPRP (Biacore). As for the experimental part:
as §4

Square brackets hold non-standard residues; d marks the D form. Side chains are listed from the residue outwards. Ends that are not written are not given here. * marks the point of attachment. X2 = 7‑methoxycoumarin‑3‑carboxylic acid, COc1ccc2cc(C(=O)*)c(=O)oc2c1; Dansyl = CN(C)c1cccc2c(S(=O)(=O)*)cccc12; Ahx = NCCCCCC(=O)O

T2 sequence (P00915 2-261 limits assumed): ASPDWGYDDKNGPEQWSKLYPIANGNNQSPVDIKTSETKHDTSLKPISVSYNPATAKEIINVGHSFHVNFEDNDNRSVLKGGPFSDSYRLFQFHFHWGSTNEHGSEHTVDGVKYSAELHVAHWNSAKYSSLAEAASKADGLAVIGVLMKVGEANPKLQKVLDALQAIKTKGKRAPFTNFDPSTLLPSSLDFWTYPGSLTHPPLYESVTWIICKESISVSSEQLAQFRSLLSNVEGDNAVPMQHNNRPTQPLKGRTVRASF

Broadly, the Kd is the constant that tells how readily two partners part at equilibrium. As for Ac-NAADLEAK([Ahx-benzenesulphonamide carboxylic acid])IRHLAEK(Dansyl)LAARGPVDC(N‑(5-fluoresceinyl)maleimide)AQLAEQLARRFEAFARAG (designed binder) [3-C15L8-B with dansyl and fluorescein (form for fluorescence titration)], the Kd in test [1] is 29 nM. This lies in the double-digit nanomolar range.

For the molecule Ac-NAADLEAK([Ahx-benzenesulphonamide carboxylic acid])IRHLAEK(X2)LAARGPVDAAQLAEQLARRFEAFARAG (designed binder) [3-C15L8-B], the Kd came out at 390 nM in test [2], 60 nM in test [3] and 43 nM in [4].

Broadly, the kon is the second-order rate constant of association. Lower therefore signals slower complex formation. As for Ac-NAADLEARIRHLRERLAARGPRDAAQLAEQLARK([Ahx-benzenesulphonamide carboxylic acid])FEK(X2)FARAG (designed binder, not fully specified (C-terminus)) [4-C37L34-B], the values for the Kd in test [2], in test [3] and in [4] were 470 nM, 17 nM and 15 nM, respectively. In addition, in [5], the “factor of discrimination between HCAI and HCAII” value was around 30 fold. In test [6], this molecule showed a kon of 4400 M⁻¹ s⁻¹.

B1: 1D15L8_GPRP (designed binder)
polypeptide: Ac-NEADLEAKIRHLAEKLEARGPEDAEQLAEQLARAFEAFARAG
ligand peptide, branch on Lys8: GPRP[Ahx]G
modifications: not fully specified (some residues); also: reporter group on Lys15, bond at chain A 8 to a chain's C-terminus via 6-aminocaproic acid-Gly
Consider B1, for which the binding result in test [7] is “no binding (tested: 100 nM)”. Molecule Ac-NAADLEAAIKHLAEALK([Gly-Ahx-Pro-Arg-Pro-Gly])ARGPVDAAQLAEQLARAFEAFARAG (designed binder, also: reporter on Lys10, 'D' in the name not explained) [2D10L17_GPRP] returned a Kd in test [8] of 10300 nM.

B2: 2D15L8_GPRP (designed binder)
chain: Ac-NEADLEAK([Gly-Ahx-Pro-Arg-Pro-Gly])IRHLAEKLAARGPVDAAQLAEQLARAFEAFARAG
modifications: also: reporter on Lys15
notes: 'D' in place of 'C' in the name is not explained; tied to 2-C15L8 by the rest of the name
Take B2: binding in [8] was characterised by a dissociation constant (Kd) of 10400 nM. Still for that read-out and setting: then Ac-NEADLEAAIRHLAEALAARGPK([Gly-Ahx-Pro-Arg-Pro-Gly])DAKQLAEQLARAFEAFARAG (designed binder, also: reporter on Lys25, 'D' in the name not explained) [2D25L22_GPRP], with 16100 nM. Same read-out and setting: then Ac-NAADLEAAIRHLAERLAARGPVDAAQLAEQLAAK([Gly-Ahx-Pro-Arg-Pro-Gly])FEKFARAG (designed binder, also: reporter on Lys37, 'D' in the name not explained) [2D37L34_GPRP], with 13600 nM.

B3: 3D37L34_GPRP (designed binder)
chain: Ac-NAADLEAAIRHLAERLAARGPVDAAQLAEQLARK([Gly-Ahx-Pro-Arg-Pro-Gly])FEKFARAG
modifications: also: reporter on Lys37
notes: 'D' in the name not explained; a Cys in the loop region may be present
Regarding B3, the Kd in test [8] was 1150 nM; in test [9] it was 15.4 nM. In test [8], Ac-NEADLEAAIRHLAERLEARGPADAAQLAEQLAAK([Gly-Ahx-Pro-Arg-Pro-Gly])FEKFARAG (designed binder, also: reporter on Lys37, 'D' in the name not explained) [1D37L34_GPRP] gave a Kd of 5070 nM. In other words, the single-digit micromolar range. A word on the IC50: it is the midpoint of a concentration-inhibition curve. Lower therefore signals greater potency in that assay. In test [10], GPRP (also called GPRP tetrapeptide) [GPRP peptide] yielded an IC50 of around 50000 nM. Ac-NAADLEAAIK(Dansyl)HLAEALK([Ahx-benzenesulphonamide carboxylic acid])ERGPEDC(N‑(5-fluoresceinyl)maleimide)EQLAEQLARAFEAFARAG (designed binder) [1-C10L17-B with dansyl and fluorescein (form for fluorescence titration)] returned a Kd in test [1] of 5 nM.
